The source of these data is patent US20210017275A1 (Alector, published 2021).

The target in test [1] is T1, human Siglec-5 expressed on human primary cells (human, UniProt O15389 17-551).
T1 construct: Endogenous receptor on human primary monocytes, dendritic cells, macrophages and neutrophils; also called CD170
T1 sequence: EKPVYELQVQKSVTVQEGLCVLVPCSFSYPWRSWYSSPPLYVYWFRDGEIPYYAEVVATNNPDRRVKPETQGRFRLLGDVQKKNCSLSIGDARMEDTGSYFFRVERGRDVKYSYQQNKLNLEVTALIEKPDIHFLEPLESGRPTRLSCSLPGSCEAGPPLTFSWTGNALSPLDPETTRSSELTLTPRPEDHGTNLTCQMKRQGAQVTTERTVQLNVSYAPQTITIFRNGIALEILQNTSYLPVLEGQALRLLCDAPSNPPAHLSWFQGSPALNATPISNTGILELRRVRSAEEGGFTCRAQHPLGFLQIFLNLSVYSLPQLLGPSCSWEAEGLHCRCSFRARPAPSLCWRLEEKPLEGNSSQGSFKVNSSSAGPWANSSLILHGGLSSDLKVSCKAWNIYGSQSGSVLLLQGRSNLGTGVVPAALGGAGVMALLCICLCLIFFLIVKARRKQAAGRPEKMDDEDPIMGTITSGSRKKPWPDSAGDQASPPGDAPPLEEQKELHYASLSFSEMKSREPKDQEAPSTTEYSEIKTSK
Description: flow cytometry, human primary dendritic cells, 10 ug/ml mAb.
Description: (§1) Initial characterization of Siglec-5 antibodies involved determining their ability to bind Siglec-5 expressed on human primary monocytes, human primary macrophages, human primary dendritic cells, and human primary neutrophils. Cells were harvested, plated at 10⁶1m1 in a 96 well plate, and incubated in 100 μl PBS containing 2% FBS, 2 mM EDTA and 10 μg/ml Mab and Fc blocking reagent for 1 hour in ice. […] Cells were washed twice in cold PBS and analyze by flow cytometry on a BD FACS Canto. Data analysis and calculation of MFI values was performed with FlowJo (TreeStar) software version 10.0.7.
(§2) Binding is compared to an isotype control.

The target in test [2] is T2, Human Siglec 5, Fc chimera (R&D Systems) (human, UniProt O15389 17-434, limits assumed).
T2 construct: Bought or recombinant Fc fusion; also called recombinant Siglec-5-Fc; not shown: Fc part
T2 sequence: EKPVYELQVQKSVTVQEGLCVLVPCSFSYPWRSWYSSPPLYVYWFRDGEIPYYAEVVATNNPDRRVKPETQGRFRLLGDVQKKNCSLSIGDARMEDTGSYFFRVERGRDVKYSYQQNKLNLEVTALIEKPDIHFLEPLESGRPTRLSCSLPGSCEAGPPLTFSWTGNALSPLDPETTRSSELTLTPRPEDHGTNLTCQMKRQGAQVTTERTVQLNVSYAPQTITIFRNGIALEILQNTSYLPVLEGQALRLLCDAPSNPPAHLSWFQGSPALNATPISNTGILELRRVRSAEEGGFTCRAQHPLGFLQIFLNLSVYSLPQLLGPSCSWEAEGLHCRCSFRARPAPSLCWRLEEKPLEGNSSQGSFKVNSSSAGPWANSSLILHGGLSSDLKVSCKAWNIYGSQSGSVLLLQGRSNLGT
As to the kind of experiment: RBC adhesion to plate-bound Siglec-5-Fc, 0.3 ug/ml mAb, percent of binding without antibody.

Test [3] has as its target T3, Histidine-tagged human Siglec-5 (NovoProtein) (human, UniProt O15389 17-434, limits assumed).
T3 construct: Bought protein; also called Siglec-5-his tagged protein; not shown: histidine tag
T3 sequence: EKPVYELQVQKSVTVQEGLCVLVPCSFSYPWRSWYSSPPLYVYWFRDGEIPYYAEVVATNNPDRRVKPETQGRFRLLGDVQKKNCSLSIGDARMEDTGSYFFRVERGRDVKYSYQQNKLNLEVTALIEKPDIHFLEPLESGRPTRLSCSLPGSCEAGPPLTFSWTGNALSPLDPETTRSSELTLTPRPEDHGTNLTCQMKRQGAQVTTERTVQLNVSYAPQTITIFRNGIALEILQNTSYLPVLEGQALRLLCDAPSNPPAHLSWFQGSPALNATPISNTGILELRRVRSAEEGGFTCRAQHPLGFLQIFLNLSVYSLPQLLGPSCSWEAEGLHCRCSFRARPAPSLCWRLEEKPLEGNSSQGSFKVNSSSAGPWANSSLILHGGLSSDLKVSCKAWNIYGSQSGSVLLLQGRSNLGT
Description: SPR (BiaCore T200, 25 C), mAb captured on anti-mouse IgG, 15 nM His-tagged Siglec-5, single-concentration 1:1 fit.

Test [4] has as its target T1, human Siglec-5 expressed on human …. As to the kind of experiment: flow cytometry, human primary macrophages, 10 ug/ml mAb.
Description: as §1, §2
Test [5] concerns the target T2, Human Siglec 5, Fc chimera (R&D Systems). As to the kind of experiment: RBC adhesion to plate-bound Siglec-5-Fc, 1.0 ug/ml mAb, percent of binding without antibody.
Description: Siglec-5 antibodies (0.3 μg/ml or 1.0 μg/ml) were bound for one hour at RT with gentle rocking. After removal of unbound antibody, red blood cells were added to each well at a concentration of 3.0 ×10⁶ cells per ml and incubated at RT for one hour. Unbound RBCs were then carefully washed off 3X with PBS, and water was added to each well for hypotonic lysis of bound RBCs. The plate was transferred to -80° C. for 10 minutes, followed by 37° C. for 15 minutes. Bound RBCs were detected by peroxidase activity, followed by 2N sulfuric acid to stop the reaction.
Test [6] addresses T1, human Siglec-5 expressed on human …. Description: flow cytometry, human primary neutrophils, 10 ug/ml mAb.
Description: as §1, §2
Test [7] has the same target. As to the kind of experiment: flow cytometry, human primary monocytes, 10 ug/ml mAb.
Description: as §1, §2

B1: anti-Siglec-5 monoclonal antibody 9B1 (antibody, IgG1, V domains shown)
VH: QVQLQQSGAELVKPGASVKLSCKASGYTFTEYTIHWVKQRSGQGLEWIGWFYPGSGSIKYNEKFKDKATLTADKSSSTVYMELSRLTSEDSAVYFCARQEEGGIGFDYWGQGTTLTVSS
VL: DVLMTQTPLSLLVSLGDQASISCRSSQSIVHSNGNTYLEWYLQKPGQSPKLLIYKVSIRFSGVPDRFSGSGSGTDFTLKISRVEAEDLGVYYCFQGSHVPWTFGGGTKLEIK
As to B1, the “% Positive” value in test [1] is 96.1%; in test [4] it was 94%; in test [6], 99.2%; in test [7] it was 97.6%. Besides, the MFI is 660 in test [1], 560 in test [4], 411 in test [6] and 382 in test [7]. Besides, the “Percent RBC Binding to Siglec-5” value in test [2] worked out at 29.2%; in test [5], 5.79%. Further, the Kd in test [3] was found to be 0.069 nM.

B2: anti-Siglec-5 monoclonal antibody 7A5 (antibody, IgG1, V domains shown)
VH: EIQLQQSGPELVKPGASVKVSCKASGYSFTDYNMYWVKQSHGKSLEWIGYIDPYNGGTTYNQKFKGKATLTVDKSSSTAFMHLNSLTSEDSAVFYCAFYYGYYGVPYWGQGTLVTVSA
VL: DIVMIQSQKFMSTSVGDRVSVTCKASQNVDTNVAWYQQKPGQSPKALIYSASYRYSGVPDRFTGSGSGTDFTLTISNVQSEDLAEYFCQQYNSFPLTFGSGTKLEIK
Regarding B2, the “% Positive” value in test [1] came out at 90.3%; in test [4], 84.1%; in test [6], 94.6%; in test [7] it was 93.5%. In addition, the MFI was determined as 467 in test [1], 445 in test [4], 261 in test [6] and 391 in test [7]. In addition, the “Percent RBC Binding to Siglec-5” value in test [2] is 47.4%; in test [5], 6.86%. In test [3], this molecule showed a Kd of 0.112 nM.

B3: anti-Siglec-5 monoclonal antibody 5H2 (antibody, IgG1, V domains shown)
VH: EVQLQQSGPELVKPGASVKVSCKASGYSFTDYNMYWVKQSHGKSLEWIGYIDPYNGGTSYNQKFKGKATLTVDKSSSTAFMLLNSLTSEDSAVYYCALYYDYDGIPYWGQGTLVTVSA
VL: DIVMTQSQKFMSTSVGDRVSVTCKASQNVGTNVAWYRQKPGQSPKALIYSASYRYNGVPDRFTGSGSGTDFTLTISNVQSEDLAEYFCQQYNSYPYTFGGGTKLEIK
For B3, the “% Positive” value in test [1] stood at 94%; in test [4], 93.5%; in test [6], 98.1%; in test [7] it was 96.1%. Further, the MFI in test [1] is 515; in test [4] it was 537; in test [6] it was 329; in test [7], 404. Besides, the “Percent RBC Binding to Siglec-5” value in test [2] stood at 36.5%; in test [5], 9.94%. In addition, the Kd in test [3] amounted to 0.184 nM.

B4: anti-Siglec-5 monoclonal antibody 10B6 (antibody, IgG1, V domains shown)
VH: EIQLQQSGPELVKPGASVKVSCKASGYSFTDYNMYWVKQSHGKSLECFGYIDPYNGGPYYNQKFKGKATLTVDKSSSTAFMHLNSLTSEDSAVYYCAFYYGYYGVPYWGQGTLVTVSA
VL: DIVMTQSQKFMSTSVGDRVSVTCKASHNVGTSVAWYQQKPGQSPKSLIYSASYRYSGVPDRFTGSGSGTDFTLTISNVQSEDLAEYFCQQYNSYPLTFGSGTKLEIK
Take B4: the “% Positive” value came to 93.6% in test [1], 94.4% in test [4], 94.4% in test [6] and 98.2% in test [7]. In addition, the MFI in test [1] was found to be 607; in test [4], 581; in test [6], 253; in test [7], 421. In addition, the “Percent RBC Binding to Siglec-5” value in test [2] turned out to be 27.5%; in test [5] it was 5.21%. In test [3], this molecule registered a Kd of 0.101 nM.
